Assay results reported in the DeepSol protein solubility set.

Experiment: soluble on expression in E. coli; label from the status in PepcDB or PDB records

**Q.** Which “soluble on expression in E. coli” value does the source give for “MNHLPVVGEDYVEIPDGRPFAPLAGKIEVVEIFGYTCPHCAHFDSKLQAWGARQAKDVRFTLVPAVFGGVWDPFARAYLAADVLGVAKRSHTAMFEAIHEKGSVPIQNVGPDELAVFYAGYGVQPDRFVATFNGPEVEKRFQAARAYALKVRPVGTPTIVVNGRYMVTGHDFEDTLRITDYLVSRERAASHGR” here?
**A.** soluble

**Q.** Which “soluble on expression in E. coli” value does the source give for “MIATTSQQSFNLLRTLAVQKASDFADEFYIYMLKDQEASLFLSSQQVHDRLHGSMSKWIADILTNTGDSLADLINHQKKIGQIHARIGIPVDLVERGARRLKWHLYEHIAQVADDKALCFDAMRFASISMDIAIEIMSKTYSQSHDLEHHHHHH” here?
**A.** not soluble

**Q.** Which “soluble on expression in E. coli” value does the source give for “MTTTMSTLPVVLVDEILARVPITSLRSLRSTCKKWEASSKTNLVGGKATARKSSHVGFILIGDKICSMKLDLNGGDDFVDTSVNQVSAFDGFAISQLFHCDGLLFCISNNHYSNYTLMVCNMYLGETRLIQNRSLFESYQNFCSYAFGYDSSKNRNHKILRNNSVSGGYEIYSLKSDSWKDLNVDLEKSIHLWRLGSVSLKGNAYFRVIKVIEEGVWEYNLLCFDFTRESFGKLLSLPFESLGDEGEGIMVISCVRDDHLAVLYQRDTLGIWISTEIEPNKVSWREFLQVDLATLDGFPDVFIAGRFIVDEEKQVVVVFGQETELDLNHGNAFIFGRDGYFTSFTVGDAPPEDFTSYVPSLVSLQIDKTGKRKARDD” here?
**A.** soluble

**Q.** With “MKITTWNVNSLNVRLPQVQNLLADNPPDILVLQELKLDQDKFPAAALQMMGWHCVWSGQKTYNGVAIVSRSVPQDVHFGLPALPDDPQRRVIAATVSGVRVINVYCVNGEALDSPKFKYKEQWFAALTEFVRDEMTRHGKLVLLGDFNIAPADADCYDPEKWHEKIHCSSVERQWFQNLLDLGLTDSLRQVHPEGAFYTWFDYRGAMFQRKLGLRIDHILVSPAMAAALKDVRVDLETRALERPSDHAPVTAEFDW” as the sequence, how does the “soluble on expression in E. coli” value read?
**A.** soluble

**Q.** Which “soluble on expression in E. coli” value does the source give for “MGSDKIHHHHHHMARIARVIATGIPHHVTQRGNRRMPTFFNDEDYRAYIALLGEWCRKCGVDIWAYCLMPNHVHLIAVPETDDGLRRGIGEAHRRYSRMINFRENWRGHLWQGRFASFPMDESYLLAAARYVEMNPVRARLTPKAALWPWSSARAHLDRMDDELVKVAPLLELVGDWSLFLAGTGEEDQLNDIRKHERTGRPLGTEEFVERLESALERPLKKGKPGPKGNDN” here?
**A.** not soluble

**Q.** For “MGSSHHHHHHSSGLVPRGSHMRLCHPCPWEWTFFQGNCYFMSNSQRNWHDSITACKEVGAQLVVIKSAEEQNFLQLQSSRSNRFTWMGLSDLNQEGTWQWVDGSPLLPSFKQYWNRGEPNNVGEEDCAEFSGNGWNDDKCNLAKFWICKKSAASCSRDEEQFLSPAPATPNPPPA”, which “soluble on expression in E. coli” value is on record?
**A.** soluble

**Q.** With “MSCALLIENLTCQYDAQTVLKSLSLQVNPGEIVCLLGASGCGKTTLLKAIAGLLPLASGQLSLNCVTLDDGKRWLPPEQRNIGMIFQDYALFPHLTVAQNVGFGLDAMPAKQKEAKIAEMLALVHLDAFAERYPHQLSGGQQQRVAIARALAYKPDLLLLDEPFSNIDTQVRHELIIEIRKIFKQQGVTAIFVTHSREEAFAFADKMAVMNRGVIEQYGTAAELYYQPSSQFVADFLGGGSYLSAKRISETQYQTALGVVEAIARQPIAVEAECKLLLRPQQVQIRAEEESSVTVTEQQFMGDHCRYLIDAHGTQLIATSSQPLELGQAVSVNIDTQGVLAFA” as the sequence, how does the “soluble on expression in E. coli” value read?
**A.** not soluble

**Q.** For “MAEKSFKYIILGGGVSAGYAAKEFANQGVQPGELAVISKEAVAPYERPALSKGYLFPEGAARLPGFHCCVGSGGEKLLPESYKQKGIELILSTEIVKADLSAKSLVSATGDVFKYQTLIIATGSTVLRLTDFGVKGADSKNILYLREIDDADKLVEAIKAKKGGKAVVVGGGYIGLELSAVLRINNLDVTMVFPEPWCMPRLFTADIAAFYETYYTNKGVKIIKGTVASGFTAQPNGEVKEVQLKDGRTLEADIVIVGVGAKPLTSLFKGQVEEDKGGIKTDAFFKTSVPDVYAVGDVATFPLKMYGDVRRVEHVDHSRKSAEQAVKAIKAAEGGAAVEEYDYLPFFYSRSFDLSWQFYGDNVGDSVLFGDSNPSNPKPRFGAYWVQGGKVVGAFMEGGSGDENKALAKVAKARPSAESLDELVKQGISFAAKI”, which “soluble on expression in E. coli” value is on record?
**A.** soluble

**Q.** Which “soluble on expression in E. coli” value does the source give for “MSNWTTYPQKNLTQAEQLAQLIKEADALVVGIGAGMSAADGFTYIGSRFETAFPDFIAKYQFLDMLQASLFDFEDWQEYWAFQSRFVALNYLDQPVGQSYLDLKEILGTKDYHIITTNADNAFWVAGYDPHNIFHIQGEYGLWQCSQHCHQQTYKDDTVIRQMIAEQKNMKVPGQLIPHCPECEAPFEINKRNEEKGMVEDADFHAQKARYEAFLSEHKEGKVLYLEIGVGHTTPQFIKHPFWKRVSENPNALFVTLNHKHYRIPLSIRRQSLELTEHIAQLISATKTIYQKS” here?
**A.** not soluble

**Q.** Which “soluble on expression in E. coli” value does the source give for “MSLNSQGYAVVDFETTGLSPAKGDRAIEIGLVHVAPDGTLEDEHETLIHVDRSVGASWVHHITARELLHAPDFEGIAHELRDLLAGRVFVAHNVSFDSRFLLAEYSRMGASIPVDQSTMLCTMKLSRSLIGRGKLADCCEYFGIANEDAHSALSDAHATAILLGRLLEADPKWPGFQRRLDAAGAAAEQWPTEGHHHHHH” here?
**A.** not soluble

**Q.** With “MGFGNINFCAVDLGSHKITVAIGQLAENNSIKILGVSQKQSKGIKQGSVINLEIAMETLNAALDEAKSIAGVDVKEVTLGVSAPSISGFNSYGLAAVENGEVSIEDLAMAIKTAKAVPMSADTEMLHVLQRDYIVDGQAGVTEPIGMFAVRLESNVHIIVASSRLLQNVRKCVSNCGYSISNLVVEHLAASSATLTDNEKEMGVCLVNIGADSTSFSVFADGGICYTSSIKTGGASISSDISKVFRLPIEAAESLKLQYGYAASKYLKNPDEKIDIPNSLGNAKKRISLQDLSLVIEARVEEIFESLYRELDQHRLLEVISSGIVFTGGGAKLKGLARLAEDMFKLPVRVGGPIEVSGANEVVHNPSYATVVGLLKYAAENSDTSNQQKIEEDVMEIDENTGKSKKKIISSVKGWFSNNF” as the sequence, how does the “soluble on expression in E. coli” value read?
**A.** not soluble

**Q.** For “MKIRTSMIALSLAALLSGCQSLNTEGLMQSGAQAFQAATLNDADVKALSEKSCVEMDQKAQIASADSQYGKRMAKIAAALGDNINGTPANYKVYVTKDVNAWAMANGCIRVYSGLMDMMTDNEVEGVVGHEMGHVALGHTRKAMQVAYGTTALRTAIASAGGVVGTLSQSQLADLGEKLVNAQFSQKQESEADDYSFDLLKKRGIDPNGLVTSFEKLASMEAGRNSSMFDDHPSSQARAEHIRQRIAAEK”, which “soluble on expression in E. coli” value is on record?
**A.** not soluble

**Q.** With “MGSDKIHHHHHHMKVKVGVVGATGEVGRTMVKVLEEFNVPVTELRLFASERSVGKEIEFKGEKFKVELLTEESMKWKCDYFLFSAGASVSRKFAPIAAENGVTVIDNSSAFRMEKEIPLVVPEVNAYLLKGYTGIIANPNCSTIQMILSIYKLHEVYGIEEIFVSTYQSVSGAGHKGIEELLAQERGENVMKVFPKPIHRNVIPLIGDIQENLFSQEEMKMVNETRKILNDYSIRVYPTTVRVPVLYGHSEAIMVRLKKPYESLEKVREVIASGEDVVVTDDLITPVDVAGKNETYVCRLRATDERSILFWNVADNIRVGAATNAVRILLKHAEMNGKV” as the sequence, how does the “soluble on expression in E. coli” value read?
**A.** not soluble

**Q.** With “MVFYLIGLGLGDVEDITVKGLNIVKNCARVHLEAYTSILCYGLDKTNLEKFYGREIIEADRTVVEQESDAILNGADKEDVALLVVGDPFGATTHADLVLRAKQQNIPVKVIHNASIMNAVGCCGLQLYNFGETVSIVMWTDEWQPESYYDKIALNRKRGMHTLCLLDIKTKEQTVENMMRGRKIFEPARYQKCSEAARQLLTIYERRKAKGEECAYDENTMVVGLARVGWDNQKIVYASMKDMSEMEMGEPLHSLIIPGETHPLEVDMLETFRP” as the sequence, how does the “soluble on expression in E. coli” value read?
**A.** not soluble

**Q.** With “MLWLALGPFPAMENQVLVIRIKIPNSGAVDWTVHSGPQLLFRDVLDVIGQVLPEATTTAFEYEDEDGDRITVRSDEEMKAMLSYYYSTVMEQQVNGQLIEPLQIFPRACKPPGERNIHGLKVNTRAGPSQHSSPAVSDSLPSNSLKKSSAELKKILANGQMNEQDIRYRDTLGHGNGGTVYKAYHVPSGKILAVKVILLDITLELQKQIMSELEILYKCDSSYIIGFYGAFFVENRISICTEFMDGGSLDVYRKMPEHVLGRIAVAVVKGLTYLWSLKILHRDVKPSNMLVNTRGQVKLCDFGVSTQLVNSIAKTYVGTNAYMAPERISGEQYGIHSDVWSLGISFMELALGRFPYPQIQKNQGSLMPLQLLQCIVDEDSPVLPVGEFSEPFVHFITQCMRKQPKERPAPEELMGHPFIVQFNDGNAAVVSMWVCRALEERRSQQGPP” as the sequence, how does the “soluble on expression in E. coli” value read?
**A.** soluble

**Q.** For “SLAGPKESRDLTLEQFQVNFLDQYTIKHAFINGVNIYRCYPGAPPNNVQMVMQRSHGTEVPGIMVNLEGQQPTVVPLDASIIGAKKLTPTTTRPLHNVRVLRVNAVMRFHPLCRARFVGPNDISFGIRSATSQSIQEHIQELTDLMKKTQQADEQAMGALYSRSSALVSKLKMSGATSNVAFLEVPQTETRWGNPWTWYRAYLPTPLGDGVETWMTPIGDSGYYITVDFNFTESERQKNTENYQRARQLMDSVLQSVVIQKR”, which “soluble on expression in E. coli” value is on record?
**A.** soluble

**Q.** For “MASSAVSLQSISMTTLNNLSCNQQFHRSSLLGSSKSFQNLGISSNGSDFSYPSSFTAKKNLTASRALSQNGNIENPRPSKVQELSVYEINELDRHSPKILKNAFSLMFGLGDLVPFTNKLYTGDLKKRVGITAGLCVVIEHVPEKKGERFEATYSFYFGDYGHLSVQGPYLTYEDSFLAITGGAGIFEGAYGQVKLQQLVYPTKLFYTFYLKGLANDLPLELTGTPVPPSKDIEPAPEAKALEPSGVISNYTN”, which “soluble on expression in E. coli” value is on record?
**A.** soluble

**Q.** For “MSAKKERVDVLLVERGLIETREKAKRAIMAGLVYANEMRLDKPGEKIPQDTEITVKGQVMPYVSRGGYKLEKALETFHLDLQDKVMIDIGSSTGGFTDCALQNGAKLSYALDVGYNQLAWKLRQDERVVVMERTNFRYVTPADLERGLPQFASIDVSFISLKLILPVLKTMLMPNGDVAALIKPQFEAGREQVGKKGIVRDRKVHEAVVEMIVDFAIKEGYDVEGLTFSPITGGDGNIEFLIHLKWHGERENGENHSPVSVEQVVTEAHDVLKQKGKGE”, which “soluble on expression in E. coli” value is on record?
**A.** not soluble

**Q.** For “MGSDKIHHHHHHMTVWRFKKSQKGLVGVDITSATVKLIELESSGAGHRIASYAVRPLHEGAVVERRIRDLDEVANTLTRAVEHARPHSRRAVAAVPASAAITKTLTYPASLTDDEIEARIQLESERHIPFPLNEVAFDFQRLGLNARYPDQQDILLVACRLQDVDRLADVLRRAGLEPAAVDVETFAMERAAGELLLGQAASQPDDECVALVDIGANMNAFHVLIDGRIAYTRDNVLGGRHLTEEIRKRYGLSLEEAGLAKKRGGLPEDYELEVLTPYIDMLIQQVGRSLQLYYTSGKPRDIQRLVLAGGSSVIPGLRERLAAQSGLEVVMANPFSRMRVASRVDVQALASDAPAMLTACGLAMRGRR”, which “soluble on expression in E. coli” value is on record?
**A.** not soluble

**Q.** For “MAFRVLVIGGYGNFGSLICNHLAMMPDIELVISGRDPRKLAEKVAALQTLAGRFCQSWCVDIMQDGAGSELGELGIDLLIHTAGPFQGQSYAVARHCIAAGVNYCDLSDCRTFVSGIATLDALAREAGVCVLSGCSSVPTLSAAIIDQHRQRFLRIDSIEHGISSAAKMPGLSTVR”, which “soluble on expression in E. coli” value is on record?
**A.** not soluble

**Q.** For “MSLKKKIAVVTGATGGMGIEIVKDLSRDHIVYALGRNPEHLAALAEIEGVEPIESDIVKEVLEEGGVDKLKNLDHVDTLVHAAAVARDTTIEAGSVAEWHAHLDLNVIVPAELSRQLLPALRAASGCVIYINSGAGNGPHPGNTIYAASKHALRGLADAFRKEEANNGIRVSTVSPGPTNTPMLQGLMDSQGTNFRPEIYIEPKEIANAIRFVIDAGETTQITNVDVRPRIELADRKEGHHHHHH”, which “soluble on expression in E. coli” value is on record?
**A.** soluble
